Here are results for 1 molecule from US20110263454A1, “Methods of Identifying Functional Characteristics of Promoters, Transcription Modifying Proteins and Transcription Modulating Agents” (Salk Institute for Biological Studies, priority 2008, published 2011).

One assay has as its system hPOMC promoter. The assay is described as follows: NHR-promoter luciferase screen, hPOMC promoter. The format is cell-based, human. Put shortly: (§1)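 CV-1 cells were co-transfected with 50 ng NHR (homodimer or NHR/RXR heterodimer), 100 ng promoter-luciferase construct and 50 ng LacZ. Luciferase was normalized to LacZ and to a no-NHR/no-ligand control.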
The subject of the next assay is mAgrp promoter. Put plainly: NHR-promoter luciferase screen, mAgrp promoter. The format is cell-based, mouse. Put shortly:
as §1

The test system of a further assay is hMDR1 promoter. The assay is described as follows: NHR-promoter luciferase screen, hMDR1 promoter. It is filed as cell-based, human. In outline:
as §1

A further assay deals with mADRP promoter. The assay is described as follows: NHR-promoter luciferase screen, mADRP promoter. It is filed as cell-based, mouse. In outline:
as §1

The next assay has as its system mDio1 promoter. The assay is described as follows: NHR-promoter luciferase screen, mDio1 promoter. The format is cell-based, mouse. In outline:
as §1

A further assay concerns hTNFa promoter. Put plainly: NHR-promoter luciferase screen, hTNFa promoter. It is filed as cell-based, human. Put shortly:
as §1

Where [1] appears, read: hPOMC promoter, HR/ligand component.
Setting [2] is: transcription factor +/- ligand, control = 1.00.
Setting [3] is: MDR1 promoter, HR/ligand component.
Setting [4] is: ADRP promoter, HR/ligand component.
Setting [5] is: Dio1, HR component without or with its ligand.
Where [6] appears, read: TNFa promoter, HR component without or with ligand.

B1: SHP: Small Heterodimer Partner (NR0B2), cDNA driver (protein, UniProt Q15466 1-257, looked up)
Nuclear receptor subfamily 0 …: MSTSQPGACPCQGAASRPAILYALLSSSLKAVPRPRSRCLCRQHRPVQLCAPHRTCREALDVLAKTVAFLRNLPSFWQLPPQDQRRLLQGCWGPLFLLGLAQDAVTFEVAEAPVPSILKKILLEEPSSSGGSGQLPDRPQPSLAAVQWLQCCLESFWSLELSPKEYACLKGTILFNPDVPGLQAASHIGHLQQEAHWVLCEVLEPWCPAAQGRLTRVLLTASTLKSIPTSLLGDLFFRPIIGDVDIAGLLGDMLLLR
Consider B1, for which the “Luc. act., normalized to lacZ” value in the assay with hPOMC promoter (setting [1]) is recorded as 1.9; in the assay on mAgrp promoter (mAgrp promoter, HR component with or without ligand), 44.6; in the assay on hMDR1 promoter (setting [3]) it was 0.3; in the assay on mADRP promoter (setting [4]) it was 421.4; with mDio1 promoter (setting [5]) it was 4.8; with hTNFa promoter (setting [6]) it was 914.4. Besides, the “Normalized Luc. act., normalized to control” value came out at 0.4 in the assay with hPOMC promoter (setting [1]); 1.1 with mAgrp promoter (mAgrp promoter, HR component with or without ligand, relative to control); 0.8 in the assay on hMDR1 promoter (setting [3]); 0.8 in the assay on mADRP promoter (setting [4]); 1.1 with mDio1 promoter (setting [5]); 0.9 in the assay with hTNFa promoter (setting [6]). Moreover, the “hPOMC promoter reporter activity” value with hPOMC promoter (setting [2]) is recorded as 0.43. For the same molecule, in the assay on mAgrp promoter (Table 6d, luciferase activity relative to control (control = 1.00)), the “Results of assays of transcription factor (+/- ligand) with mAgrp” value was determined as 1.12. Also, the “hMDR1 promoter reporter activity” value with hMDR1 promoter (setting [2]) was 0.84. Further, the “mADRP promoter reporter activity” value with mADRP promoter (setting [2]) amounted to 0.85. The “mDio1 promoter reporter activity” value with mDio1 promoter (setting [2]) is reported as 1.07. Moreover, the “hTNFa promoter reporter activity” value in the assay with hTNFa promoter (setting [2]) stood at 0.93.
